Our source for the Km values is patent US8709811B2, “Materials and methods for synthesis of a flavor and aroma volatile in plants” (University of Florida Research Foundation, Inc., priority 2003, dated 2014).

Usually Km stands for the substrate concentration at which the rate is half of its maximum.

Test systems include O=C/C=C/c1ccccc1; O=Cc1ccccc1; O=CCc1ccccc1.
Common to all, as to assay: Alcohol dehydrogenase activity of E. coli expressed His-tagged LePEDH on phenylacetaldehyde and related substrates (Km)
Assay type in all cases: biochemical, tomato
Holding throughout (conditions): other: substrate specificity of LePEDH, His tag, E. coli BL21-AI

Sequence of LePEDH (tomato 2-phenylethanol dehydrogenase, full-length cLET2M9) (Solanum lycopersicum) (chain, as listed by the source): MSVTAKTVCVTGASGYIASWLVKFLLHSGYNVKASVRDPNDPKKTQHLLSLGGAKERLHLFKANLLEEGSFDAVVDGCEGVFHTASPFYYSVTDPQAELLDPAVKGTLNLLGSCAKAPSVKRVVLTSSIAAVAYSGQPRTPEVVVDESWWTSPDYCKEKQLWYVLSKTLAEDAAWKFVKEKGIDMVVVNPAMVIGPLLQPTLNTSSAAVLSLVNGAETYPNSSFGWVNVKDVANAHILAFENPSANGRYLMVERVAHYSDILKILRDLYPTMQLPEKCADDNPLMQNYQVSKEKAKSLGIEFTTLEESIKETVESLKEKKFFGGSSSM
Method for O=C/C=C/c1ccccc1: (§1) The 2-phenylethanol dehydrogenase coding region of the full-length cLET2M9 was cloned in vector pDEST17 with a His tag and transformed into E. coli BL21-AI cells for inducible expression. Alcohol dehydrogenase activities on phenylacetaldehyde and several related substrates were determined.
Method for O=CCc1ccccc1: as §1
Method for O=Cc1ccccc1: as §1

As to “LePEDH (tomato 2-phenylethanol dehydrogenase, full-length cLET2M9) (Solanum lycopersicum)”, the Km with O=C/C=C/c1ccccc1 was 428.9 µM; in the data set on O=Cc1ccccc1 it was 240.1 µM; in the data set with O=CCc1ccccc1, 42.3 µM.
